Laboratory results reported in patent US20240092876A1 (priority 2020, published 2024).

Assays:
[1] = target: N2_A_Leningrad_134_17_57 (influenza A virus); assay: flow cytometry on NA-expressing cells
[2] = target: N2 neuraminidase from A/Washington/01/2007 (Influenza A virus A/Washington/01/2007); assay: flow cytometry on NA-expressing cells

B1: FNI19-v3 (antibody, V domains shown)
VH: QVQLVQSGAEVKKPGSSVKVSCKASEGTFNKYTISWVRQAPGQGLEWMGGIIPISGIANYAQKFQGRVAITADESTTTAYMELSSLRSEDSAVYYCATAVSDYFNRDLGWEDYYFPFWGQGTLVTVSS
VL: EIVMTQSPATLSVSPGARATLFCRASRSVSDNLAWYQQKPGQAPRLLIFGASTRATGVPARFSGSGSGTQFTLTISSLQSEDFAVYYCQHYNIWPPWTFGQGTKVEIK
- MFI normalized vs wt [1]: 1.04
- MFI normalized vs wt [2]: 0.83
